{"source": "patent US20220160699", "about": "“MODULATORS OF TDP-43” (Alteron Therapeutics, Inc., published 2022)", "target": "TDP-43 (TARDBP) (UniProt Q13148 Q13148:1-414)", "sequence (Q13148 whole entry, one chain of several)": "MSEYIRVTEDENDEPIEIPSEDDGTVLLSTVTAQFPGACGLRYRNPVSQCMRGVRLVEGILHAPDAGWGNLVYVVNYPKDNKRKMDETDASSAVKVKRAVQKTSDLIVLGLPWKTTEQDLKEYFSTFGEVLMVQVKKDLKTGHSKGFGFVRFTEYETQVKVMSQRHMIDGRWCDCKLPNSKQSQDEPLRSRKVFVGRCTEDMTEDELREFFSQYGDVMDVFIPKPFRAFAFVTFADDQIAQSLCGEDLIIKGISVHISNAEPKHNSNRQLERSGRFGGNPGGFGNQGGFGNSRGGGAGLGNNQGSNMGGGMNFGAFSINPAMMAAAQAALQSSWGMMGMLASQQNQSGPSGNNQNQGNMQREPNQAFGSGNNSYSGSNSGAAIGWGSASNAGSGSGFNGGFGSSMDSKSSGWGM", "assay": "pulldown; streptavidin bead pulldown and anti-TDP-43 Western; 20 mM HEPES pH 7.5, 0.3% CHAPS, 150 mM NaCl, on ice/4 C; binding blocked by 30 uM ALT-59, and complex displaced by ALT-59", "conditions": "tags: N-terminal His-Sumo, expressed in E. coli Rosetta (DE3) from pSumo/TDP43; label: 3' biotin", "method": "Additional experiments were performed to confirm the direct binding of ALT-59 to TDP-43. One microgram of purified His-Sumo-TDP43 was incubated with 1 μg TG₁₂-biotin ([…]-biotin (SEQ ID NO: 1)) in binding buffer containing 20 mM HEPES, pH 7.5, 0.3% CHAPS, 150 mM NaCl, (Sigma-Aldrich), and protease inhibitor cocktail (Roche) for 4 hours on ice in the presence of carrier (50% Cremophor EL, 50% absolute ethanol) or 30 μM ALT-59 dissolved in carrier. Streptavidin magnetic beads (20 μl settled beads, GE Healthcare Life Sciences) were added to pull down the DNA-protein complex by rotating at 4° C. for 2 hours. After being washed 5 times with binding buffer, samples were boiled in protein sample buffer. In another experiment, DNA-protein complex bound to Streptavidin magnetic beads were washed and split into three parts, two of which were incubated with either carrier or ALT-59 for 4 hours with rotation at 4° C. to elute TDP-43 from TG₁₂-biotin-streptavidin. The third part and elutes were mixed with protein sample buffer and boiled. Protein samples from the above experiments were loaded onto 4-20% Tris-glycine gel (Invitrogen) for fractionation. Western blotting was performed using anti-TDP-43 antibody (Proteintech Group).", "data": [{"binder": "TGTGTGTGTGTGTGTGTGTGTGTG (ssDNA)", "note": "[TG12-biotin]", "values": [{"measurement": "binding result", "value": "binds"}]}]}
